Source: patent US20240116985A1, “STAPLED PEPTIDES AND METHODS THEREOF” (priority 2020, published 2024)
Starred links: 1 amine or outer side, 2 acyl side, 3 side chain; linkers in the order of their positions; H or OH if unused. Positions of bridges follow the written chain, without caps; N, C: chain ends. Non-standard residues stand in square brackets, D forms with d. Primed or numbered codes have the meaning given here. PyrS2″ = (S)-3-amino-1-((pent-4-en-1-yloxy)carbonyl)pyrrolidine-3-carboxylic acid (stapling residue), C=CCCCOC(=O)N1CC[C@@](N[*:1])(C(=O)[*:2])C1; B5(18) = 2,2-bis(4-pentenyl)glycine (2-amino-2-(pent-4-en-1-yl)hept-6-enoic acid), stitching residue, C=CCCCC(CCCC=C)(N[*:1])C(=O)[*:2]; B5(4) = 2,2-bis(4-pentenyl)glycine = 2-amino-2-(pent-4-en-1-yl)hept-6-enoic acid (stitching residue), C=CCCCC(CCCC=C)(N[*:1])C(=O)[*:2]; B5(5) = 2,2-bis(4-pentenyl)glycine, 2-amino-2-(pent-4-en-1-yl)hept-6-enoic acid (stitching residue), C=CCCCC(CCCC=C)(N[*:1])C(=O)[*:2]; TfeGA = (S)-2-amino-3-((carboxymethyl)(2,2,2-trifluoroethyl)amino)propanoic acid, O=C([C@H](CN(CC(=O)[*:3])CC(F)(F)F)N[*:1])[*:2]; PyrS2 = (S)-3-amino-1-((pent-4-en-1-yloxy)carbonyl)pyrrolidine-3-carboxylic acid, C=CCCCOC(=O)N1CC[C@@](N[*:1])(C(=O)[*:2])C1; SeN = (S)-5-(((allyloxy)carbonyl)(methyl)amino)-2-amino-2-methylpentanoic acid, C=CCOC(=O)N(C)CCC[C@](C)(N[*:1])C(=O)[*:2]; B5(13) = 2-amino-2-(pent-4-en-1-yl)hept-6-enoic acid (two alkene chains), C=CCCCC(CCCC=C)(N[*:1])C(=O)[*:2]; B5(3) = 2,2-bis(4-pentenyl)glycine (stitching residue), C=CCCCC(CCCC=C)(N[*:1])C(=O)[*:2]; B5 = 2-amino-2-(pent-4-en-1-yl)hept-6-enoic acid, C=CCCCC(CCCC=C)(N[*:1])C(=O)[*:2]; Trp(5-Cl) = N[C@@H](Cc1c[nH]c2ccc(Cl)cc12)C(=O)O; Phe(2-Cl) = N[C@@H](Cc1ccccc1Cl)C(=O)O; Phe(2-Me) = Cc1ccccc1C[C@H](N)C(=O)O; Bta = N[C@@H](Cc1csc2ccccc12)C(=O)O; αAllylPro = C=CC[C@@]1(C(=O)O)CCCN1; tBuAla = CC(C)(C)C[C@H](N)C(=O)O; 2Thi = N[C@@H](Cc1cccs1)C(=O)O; 3Thi = N[C@@H](Cc1ccsc1)C(=O)O; S8 = C=CCCCCCC[C@](C)(N)C(=O)O

Legend:
Bcat-Halo = Bcat-Halo (UniProt P35222); experiment: NanoBRET Abs IC50, Bcat-Halo/TCF4-Luc in HEK293 cells
[1] = target: full-length beta-Catenin (Uniprot ID P35222) (Homo sapiens (Human)) (UniProt P35222); experiment: fluorescence polarization competition; displaces 5FAM-TCF4(10-53) from full-length beta-catenin
Target sequence in this assay (P35222 2-781 limits assumed): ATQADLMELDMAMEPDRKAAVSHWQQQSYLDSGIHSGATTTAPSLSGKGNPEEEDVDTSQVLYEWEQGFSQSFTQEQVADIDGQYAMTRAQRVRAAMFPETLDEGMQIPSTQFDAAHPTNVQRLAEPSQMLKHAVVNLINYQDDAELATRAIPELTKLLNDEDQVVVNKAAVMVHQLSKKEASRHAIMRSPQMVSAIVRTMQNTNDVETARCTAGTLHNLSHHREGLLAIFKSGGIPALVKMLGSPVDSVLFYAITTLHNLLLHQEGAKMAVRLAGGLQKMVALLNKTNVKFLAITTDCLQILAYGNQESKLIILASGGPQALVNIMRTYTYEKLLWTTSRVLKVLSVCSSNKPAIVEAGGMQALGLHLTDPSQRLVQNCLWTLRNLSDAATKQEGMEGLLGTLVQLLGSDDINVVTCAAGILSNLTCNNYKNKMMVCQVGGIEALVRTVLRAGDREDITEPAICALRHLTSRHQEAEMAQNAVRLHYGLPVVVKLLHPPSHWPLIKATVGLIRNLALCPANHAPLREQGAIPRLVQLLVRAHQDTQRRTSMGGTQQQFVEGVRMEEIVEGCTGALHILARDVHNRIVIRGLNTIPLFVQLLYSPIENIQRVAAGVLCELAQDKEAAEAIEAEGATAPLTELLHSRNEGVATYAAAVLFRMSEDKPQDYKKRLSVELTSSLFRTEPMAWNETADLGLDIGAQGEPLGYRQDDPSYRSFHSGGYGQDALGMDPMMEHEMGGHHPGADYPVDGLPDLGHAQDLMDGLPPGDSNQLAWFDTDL

[2] = target: full-length beta-Catenin (Uniprot ID P35222) (Homo sapiens (Human)) (UniProt P35222); experiment: fluorescence polarization competition; 10 nM full-length beta-catenin + 10 nM 5FAM-TCF4(10-53) probe
Target sequence in this assay (P35222 whole entry, the tested form may be a part): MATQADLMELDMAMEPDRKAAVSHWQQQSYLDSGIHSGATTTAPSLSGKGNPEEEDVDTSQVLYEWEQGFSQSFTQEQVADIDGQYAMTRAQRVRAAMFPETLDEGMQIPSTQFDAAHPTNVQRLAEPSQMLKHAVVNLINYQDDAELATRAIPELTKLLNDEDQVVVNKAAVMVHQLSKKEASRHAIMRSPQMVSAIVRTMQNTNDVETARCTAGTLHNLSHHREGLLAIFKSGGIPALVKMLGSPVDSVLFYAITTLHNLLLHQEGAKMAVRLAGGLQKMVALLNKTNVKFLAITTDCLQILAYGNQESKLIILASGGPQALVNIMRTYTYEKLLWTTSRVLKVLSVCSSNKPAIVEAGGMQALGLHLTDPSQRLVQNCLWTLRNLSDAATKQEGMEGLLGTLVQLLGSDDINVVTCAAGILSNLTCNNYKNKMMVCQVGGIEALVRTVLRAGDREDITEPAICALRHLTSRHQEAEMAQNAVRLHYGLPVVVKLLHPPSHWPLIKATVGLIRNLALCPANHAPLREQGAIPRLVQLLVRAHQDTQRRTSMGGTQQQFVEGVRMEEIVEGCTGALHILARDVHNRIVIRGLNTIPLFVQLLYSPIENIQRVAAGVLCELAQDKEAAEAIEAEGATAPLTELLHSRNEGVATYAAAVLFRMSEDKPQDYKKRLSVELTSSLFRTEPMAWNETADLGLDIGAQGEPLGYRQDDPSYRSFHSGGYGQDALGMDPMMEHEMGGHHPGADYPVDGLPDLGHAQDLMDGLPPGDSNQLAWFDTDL

[3] = target: full-length beta-Catenin (Uniprot ID P35222) (Homo sapiens (Human)) (UniProt P35222); experiment: fluorescence polarization competition; peptide titrated against full-length beta-catenin + 5FAM-TCF4(10-53)
Target sequence in this assay (P35222 whole entry, the tested form may be a part): as above

[4] = target: full-length beta-Catenin (Uniprot ID P35222) (Homo sapiens (Human)) (UniProt P35222); experiment: fluorescence polarization competition; full-length beta-catenin with 5FAM-labeled TCF4 residues 10-53 probe as competitor
Target sequence in this assay (P35222 whole entry, the tested form may be a part): as above

[5] = target: full-length beta-Catenin (Uniprot ID P35222) (Homo sapiens (Human)) (UniProt P35222); experiment: fluorescence polarization competition; full-length beta-catenin, competitor 5FAM-TCF4(10-53) probe
Target sequence in this assay (P35222 2-781 limits assumed): as the sequence (P35222 2-781 limits assumed) above

[6] = target: full-length beta-Catenin (Uniprot ID P35222) (Homo sapiens (Human)) (UniProt P35222); experiment: fluorescence polarization competition; peptide displaces 5FAM-TCF4(10-53) from full-length beta-catenin
Target sequence in this assay (P35222 2-781 limits assumed): as above

[7] = target: full-length beta-Catenin (Uniprot ID P35222) (Homo sapiens (Human)) (UniProt P35222); experiment: fluorescence polarization competition; full-length beta-catenin; competitor displaced: 5FAM-TCF4 10-53
Target sequence in this assay (P35222 2-781 limits assumed): as above

[8] = target: full-length beta-Catenin (Uniprot ID P35222) (Homo sapiens (Human)) (UniProt P35222); experiment: fluorescence polarization competition: peptide titrated against 10 nM full-length beta-catenin + 10 nM 5FAM-TCF4(10-53) probe
Target sequence in this assay (P35222 2-781 limits assumed): as above

Chain of Bcat-Halo (P35222 whole entry): as the sequence (P35222 whole entry, the tested form may be a part) above

B1: I-1004 (peptide)
peptide: Ac-[αAllylPro]D[tBuAla][B5(18)]D[TfeGA]ASFN[PyrS2″][Phe(2-Cl)][Bta]Q-NH2
modifications: staple 1-4, 4-11
IC50 (Bcat-Halo): 10600 nM
EC50 [1]: 5 nM
IC50 [2]: 5 nM

B2: I-1016 (peptide)
peptide: Ac-[αAllylPro]D[tBuAla][B5(18)]DNAAFT[PyrS2″][Phe(2-Cl)][Bta]S-NH2
modifications: staple 1-4, 4-11
IC50 (Bcat-Halo): 21400 nM
EC50 [1]: 8 nM
IC50 [2]: 8 nM

B3: I-715 (peptide)
peptide: Ac-[αAllylPro]DI[B5(3)]DEAAFN[S8]F[Bta]-NH2
modifications: staple 1-4, 4-11
IC50 [3]: 60.5 nM
EC50 [4]: 60.5 nM

B4: I-1011 (peptide)
peptide: Ac-[αAllylPro]D[tBuAla][B5(18)]D[TfeGA]KAFN[PyrS2″][Phe(2-Cl)][Bta]Q-NH2
modifications: staple 1-4, 4-11
IC50 (Bcat-Halo): 20800 nM
EC50 [1]: 5 nM
IC50 [2]: 5 nM

B5: I-1008 (peptide)
peptide: Ac-[αAllylPro]D[tBuAla][B5(18)]D[TfeGA]FAFN[PyrS2″][Phe(2-Cl)][Bta]Q-NH2
modifications: staple 1-4, 4-11
IC50 (Bcat-Halo): 14000 nM
EC50 [1]: 9 nM
IC50 [2]: 9 nM

B6: I-1010 (peptide)
peptide: Ac-[αAllylPro]D[tBuAla][B5(5)]D[TfeGA]IAFN[PyrS2″][Phe(2-Cl)][Bta]Q-NH2
modifications: staple 1-4, 4-11
IC50 (Bcat-Halo): 13300 nM
EC50 [1]: 8 nM
IC50 [2]: 8 nM

B7: I-713 (peptide)
peptide: Ac-[αAllylPro]D[tBuAla][B5(3)]DEAAFN[S8]F[Bta]-NH2
modifications: staple 1-4, 4-11
IC50 [3]: 70 nM
EC50 [4]: 70 nM

B8: I-774 (peptide)
peptide: Ac-[αAllylPro]D[tBuAla][B5(13)]DDAAFN[SeN][3Thi][Bta]H-NH2
modifications: staple 1-4, 4-11
EC50 [5]: 38 nM
IC50 [6]: 38 nM

B9: I-712 (peptide)
peptide: Ac-[αAllylPro]D[tBuAla][B5(3)]DEAAFN[S8]F[Bta]-NH2
modifications: staple 1-4, 4-11
IC50 [3]: 92 nM
EC50 [4]: 92 nM

B10: I-682 (peptide)
peptide: Ac-[αAllylPro]D[tBuAla][B5(4)]DEAAFN[S8][3Thi][Bta]Q-NH2
modifications: staple 1-4, 4-11; not fully specified
IC50 [7]: 41 nM

B11: I-773 (peptide)
peptide: Ac-[αAllylPro]D[tBuAla][B5(13)]DDAAFN[SeN][3Thi][Bta]H-NH2
modifications: staple 1-4, 4-11
EC50 [5]: 167 nM
IC50 [6]: 167 nM

B12: I-791 (peptide)
peptide: Ac-[αAllylPro]D[tBuAla][B5(5)]DDAAFN[PyrS2][3Thi][Trp(5-Cl)]H-NH2
modifications: staple 1-4, 4-11
IC50 [6]: 310 nM
EC50 [8]: 310 nM

B13: I-779 (peptide)
peptide: Ac-[αAllylPro]D[tBuAla][B5(13)]DDAAFN[PyrS2][2Thi][Bta]H-NH2
modifications: staple 1-4, 4-11
EC50 [5]: 5 nM
IC50 [6]: 5 nM

B14: I-718 (peptide)
peptide: Ac-[αAllylPro]D[tBuAla][B5]DEAAFN[S8][3Thi][Bta]-NH2
modifications: staple 1-4, 4-11
IC50 [3]: 82 nM
EC50 [4]: 82 nM

B15: I-717 (peptide)
peptide: Ac-[αAllylPro]DL[B5]DEAAFN[S8][3Thi][Bta]-NH2
modifications: staple 1-4, 4-11
IC50 [3]: 39 nM
EC50 [4]: 39 nM

B16: I-719 (peptide)
peptide: Ac-[αAllylPro]D[tBuAla][B5]DEAAFN[S8][3Thi][Bta]-NH2
modifications: staple 1-4, 4-11
IC50 [3]: 38 nM
EC50 [4]: 38 nM

B17: I-782 (peptide)
peptide: Ac-[αAllylPro]D[tBuAla][B5(13)]DDAAFN[PyrS2][Phe(2-Me)][Bta]H-NH2
modifications: staple 1-4, 4-11
IC50 [6]: 6 nM
EC50 [8]: 6 nM
